# Results: US20220010021A1 (Sanofi, published 2022)
# Changes are numbered by the printed parent chain. Names may count otherwise.
# T1: human beta-Klotho (KLB) (human, UniProt Q86Z14 53-997)
# T1 construct: bought protein, used as analyte in the off-rate screening; also called human KLB; β-Klotho
# T1 sequence (looked up): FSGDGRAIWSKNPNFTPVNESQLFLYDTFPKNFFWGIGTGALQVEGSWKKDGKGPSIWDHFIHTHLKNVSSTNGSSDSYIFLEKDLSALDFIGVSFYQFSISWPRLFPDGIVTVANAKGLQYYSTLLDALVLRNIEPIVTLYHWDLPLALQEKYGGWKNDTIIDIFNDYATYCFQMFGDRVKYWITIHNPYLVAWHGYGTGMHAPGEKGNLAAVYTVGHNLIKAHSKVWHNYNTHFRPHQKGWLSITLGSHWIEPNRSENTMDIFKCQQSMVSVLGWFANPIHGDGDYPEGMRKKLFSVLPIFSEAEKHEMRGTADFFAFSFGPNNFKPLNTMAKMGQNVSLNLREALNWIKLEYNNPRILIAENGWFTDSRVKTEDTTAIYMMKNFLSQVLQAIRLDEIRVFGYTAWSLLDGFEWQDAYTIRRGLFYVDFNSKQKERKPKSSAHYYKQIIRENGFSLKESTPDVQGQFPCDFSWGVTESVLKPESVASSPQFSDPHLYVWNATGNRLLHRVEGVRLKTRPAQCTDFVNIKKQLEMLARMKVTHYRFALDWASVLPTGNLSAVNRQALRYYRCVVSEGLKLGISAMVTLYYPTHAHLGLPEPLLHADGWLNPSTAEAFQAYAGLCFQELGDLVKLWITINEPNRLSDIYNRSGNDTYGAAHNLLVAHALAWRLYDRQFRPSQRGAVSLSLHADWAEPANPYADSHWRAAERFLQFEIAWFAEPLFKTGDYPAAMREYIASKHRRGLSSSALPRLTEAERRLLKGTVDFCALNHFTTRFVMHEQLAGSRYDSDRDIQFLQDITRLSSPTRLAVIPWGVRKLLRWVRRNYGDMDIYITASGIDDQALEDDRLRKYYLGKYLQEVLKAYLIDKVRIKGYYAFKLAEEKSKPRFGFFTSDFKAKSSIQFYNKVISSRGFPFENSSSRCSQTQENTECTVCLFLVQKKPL
# B1: 16H7 variant with light chain substitution D52G (antibody, V domains shown)
# VH: not shown
# VL: SYVLTQPPSVSVAPGQTARITCGGNNIGSESVHWYQQKPGQAPVLVVYDDSGRPSGIPERFSGSNSGNTATLTISRVEAGDEADYYCQVWDGNSDHVVFGGGTKLTVLG
# B2: 16H7 variant with light chain substitution P54D (antibody, V domains shown)
# VH: not shown
# VL: B1 VL with G52D, P54D
# B3: 16H7 variant with light chain substitution P54F (antibody, V domains shown)
# VH: not shown
# VL: B1 VL with G52D, P54F
# B4: 16H7 variant with light chain substitution R53S (antibody, V domains shown)
# VH: not shown
# VL: B1 VL with G52D, R53S
# B5: 16H7 variant with light chain substitution D52K (antibody, V domains shown)
# VH: not shown
# VL: B1 VL with G52K
# B6: 16H7 variant with light chain substitution D52S (antibody, V domains shown)
# VH: not shown
# VL: B1 VL with G52S
# B7: 16H7 variant with light chain substitution P54K (antibody, V domains shown)
# VH: not shown
# VL: B1 VL with G52D, P54K
# B8: 16H7 variant with light chain substitution P54V (antibody, V domains shown)
# VH: not shown
# VL: B1 VL with G52D, P54V
# B9: 16H7 variant with light chain substitution D52L (antibody, V domains shown)
# VH: not shown
# VL: B1 VL with G52L
# B10: 16H7 variant with light chain substitution R53L (antibody, V domains shown)
# VH: not shown
# VL: B1 VL with G52D, R53L
# B11: 16H7 variant with light chain substitution D52N (antibody, V domains shown)
# VH: not shown
# VL: B1 VL with G52N
# B12: 16H7 variant with light chain substitution R53I (antibody, V domains shown)
# VH: not shown
# VL: B1 VL with G52D, R53I
# B13: 16H7 variant with light chain substitution R53A (antibody, V domains shown)
# VH: not shown
# VL: B1 VL with G52D, R53A
# B14: 16H7 variant with light chain substitution R53K (antibody, V domains shown)
# VH: not shown
# VL: B1 VL with G52D, R53K
# B15: 16H7 variant with light chain substitution P54G (antibody, V domains shown)
# VH: not shown
# VL: B1 VL with G52D, P54G
# B16: 16H7 variant with light chain substitution R53T (antibody, V domains shown)
# VH: not shown
# VL: B1 VL with G52D, R53T
# B17: 16H7 variant with light chain substitution D52Q (antibody, V domains shown)
# VH: not shown
# VL: B1 VL with G52Q
# B18: 16H7 variant with light chain substitution P54T (antibody, V domains shown)
# VH: not shown
# VL: B1 VL with G52D, P54T
# B19: 16H7 variant with light chain substitution D52V (antibody, V domains shown)
# VH: not shown
# VL: B1 VL with G52V
# How the values were obtained:
# human beta-Klotho (KLB) = biological target: T1, human beta-Klotho (KLB); assay: BLI off-rate screening, mAb captured, KLB analyte;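 further: Off-rate taken from the dissociation phase, biosensors held in D-PBS with 0.1% BSA over 1800 s, antibody supernatants diluted to 25 µg/mL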
# [1] = biological target: human FGFR1c/KLB receptor complex on iLite FGF21 Assay Ready Cells (human, UniProt P11362 22-822; Q86Z14 1-1044); assay: cell-based or functional assay; on Mean E max (%): reference of the scale not given here
# Chain of human FGFR1c/KLB receptor complex on iLite FGF21 Assay Ready Cells (P11362 22-822, chain 1 of 2): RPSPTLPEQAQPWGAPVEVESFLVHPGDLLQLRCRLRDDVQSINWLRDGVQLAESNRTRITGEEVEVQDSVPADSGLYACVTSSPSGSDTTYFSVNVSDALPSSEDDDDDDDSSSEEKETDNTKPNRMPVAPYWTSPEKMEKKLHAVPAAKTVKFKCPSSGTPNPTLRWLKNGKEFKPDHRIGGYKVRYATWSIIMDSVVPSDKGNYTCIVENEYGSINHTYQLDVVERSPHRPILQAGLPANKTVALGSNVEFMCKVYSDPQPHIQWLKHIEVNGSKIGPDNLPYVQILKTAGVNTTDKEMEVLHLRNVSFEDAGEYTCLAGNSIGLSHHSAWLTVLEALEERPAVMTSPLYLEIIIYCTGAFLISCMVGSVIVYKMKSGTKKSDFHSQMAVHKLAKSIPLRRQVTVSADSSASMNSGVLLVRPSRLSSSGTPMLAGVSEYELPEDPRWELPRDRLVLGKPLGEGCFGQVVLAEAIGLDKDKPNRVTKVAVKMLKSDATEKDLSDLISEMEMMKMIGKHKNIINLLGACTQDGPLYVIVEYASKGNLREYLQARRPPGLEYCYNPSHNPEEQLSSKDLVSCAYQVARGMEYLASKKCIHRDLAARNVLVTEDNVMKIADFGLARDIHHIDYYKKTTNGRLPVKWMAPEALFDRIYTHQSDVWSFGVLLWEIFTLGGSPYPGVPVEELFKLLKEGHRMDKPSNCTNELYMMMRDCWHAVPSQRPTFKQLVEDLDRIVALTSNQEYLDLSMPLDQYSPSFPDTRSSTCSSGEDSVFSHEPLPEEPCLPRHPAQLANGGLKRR
# Chain of human FGFR1c/KLB receptor complex on iLite FGF21 Assay Ready Cells (Q86Z14 whole entry, chain 2 of 2): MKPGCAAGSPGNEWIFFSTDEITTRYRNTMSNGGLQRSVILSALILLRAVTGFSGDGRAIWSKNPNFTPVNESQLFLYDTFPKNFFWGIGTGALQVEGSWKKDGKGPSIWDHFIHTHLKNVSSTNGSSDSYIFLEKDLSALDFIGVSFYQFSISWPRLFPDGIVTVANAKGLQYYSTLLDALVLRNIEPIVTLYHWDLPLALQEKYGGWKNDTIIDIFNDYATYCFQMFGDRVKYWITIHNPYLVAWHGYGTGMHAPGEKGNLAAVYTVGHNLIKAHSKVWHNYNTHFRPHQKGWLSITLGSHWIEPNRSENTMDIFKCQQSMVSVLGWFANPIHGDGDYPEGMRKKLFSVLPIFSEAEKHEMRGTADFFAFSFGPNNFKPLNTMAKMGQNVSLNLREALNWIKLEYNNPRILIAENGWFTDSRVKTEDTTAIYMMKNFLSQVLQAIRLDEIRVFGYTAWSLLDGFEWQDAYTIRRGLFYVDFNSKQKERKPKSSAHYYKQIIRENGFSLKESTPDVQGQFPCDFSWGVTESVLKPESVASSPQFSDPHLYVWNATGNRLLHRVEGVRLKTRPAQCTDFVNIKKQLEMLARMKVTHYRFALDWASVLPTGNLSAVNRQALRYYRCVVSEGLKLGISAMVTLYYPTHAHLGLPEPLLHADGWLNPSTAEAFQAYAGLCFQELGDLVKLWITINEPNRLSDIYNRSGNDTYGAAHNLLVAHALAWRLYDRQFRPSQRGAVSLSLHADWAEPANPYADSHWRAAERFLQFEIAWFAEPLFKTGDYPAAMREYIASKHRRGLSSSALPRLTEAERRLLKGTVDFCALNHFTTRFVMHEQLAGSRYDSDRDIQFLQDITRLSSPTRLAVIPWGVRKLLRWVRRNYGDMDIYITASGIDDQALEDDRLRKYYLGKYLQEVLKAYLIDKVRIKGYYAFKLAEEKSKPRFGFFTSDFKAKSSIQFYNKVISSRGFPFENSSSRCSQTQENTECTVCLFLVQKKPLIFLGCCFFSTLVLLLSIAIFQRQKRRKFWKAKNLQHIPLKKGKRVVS
Binder,koff (human beta-Klotho (KLB)) [s⁻¹],Mean E max (%) [1] [%],Mean EC50 [1] [nM]
B1,3.7e-05,109,0.125
B2,0.00028,96,0.115
B3,0.00012,105,0.143
B4,0.00029,105,0.113
B5,9.2e-05,101,0.117
B6,4e-05,108,0.098
B7,0.00016,100,0.131
B8,4.1e-05,109,0.11
B9,5.7e-05,106,0.107
B10,2e-05,106,0.151
B11,6.9e-07,115,0.124
B12,1.7e-05,100,0.151
B13,0.0002,89,0.132
B14,4e-05,98,0.114
B15,5.1e-05,114,0.141
B16,8.7e-05,109,0.134
B17,2.7e-05,101,0.107
B18,0.00018,108,0.113
B19,6.9e-05,114,0.125
